Experimental data published in PMC11480844 (2024).

B1: H2-Kb / Ed23 (parent complex)
chain 1: QQKVQQSPESLTVSEGAMASLNCTFSDRSSDNFRWYRQHSGKGLEVLVSIFSDGEKEEGSFTAHLNRASLHVFLHIREPQPSDSALYLCAVRGFWTNKVVFGTGTRLQVLP
chain 2: AQTIHQWPVAEIKAVGSPLSLGCTIKGKSSPNLYWYWQATGGTLQQLFYSITVGQVESVVQLNLSASRPKDDQFILSTEKLLLSHSGFYLCAWSPRQSSYEQYFGPGTRLTVL
chain 3: not shown
chain 4: IQKTPQIQVYSRHPPENGKPNILNCYVTQFHPPHIEIQMLKNGKKIPKVEMSDMSFSKDWSFYILAHTEFTPTETDTYACRVKHDSMAEPKTVYWDRDM
chain 5: SIINFEKL
B2: H2-Kb / Ed9 (parent complex)
chain 1: AQSVTQPDARVTVSEGASLQLRCKYSYFGTPYLFWYVQYPRQGLQLLLKYYPGDPVVQGVNGFEAEFSKSNSSFHLRKASVHWSDWAVYFCAVSITGGYKVVFGSGTRLLVSP
chain 2: DSGVVQSPRHIIKEKGGRSVLTCIPISGHSNVVWYQQTLGKELKFLIQHYEKVERDKGFLPSRFSVQQFDDYHSEMNMSALELEDSAMYFCASSPRQSDYTFGSGTRLLVI
chain 3: not shown
chain 4: B1 chain 4
chain 5: SIINFEKL

Variants of: B1
Assay: % of reporter cells activated (NFAT-GFP), raw
Note: test concentration or dose not given here.

Variant | ratio to parent
chain 5 K7H | 0.333
chain 5 K7M | 1.12
chain 5 K7F | 0.0793
chain 5 K7N | 0.785
chain 5 I3Y | 0.17
chain 5 I3V | 1.41
chain 5 I3K | 0.952
chain 5 I3A | 1.06
chain 5 E6K | 1.14
chain 5 E6N | 0.0348
chain 5 E6H | 0.551
chain 5 E6T | 0.0505
chain 5 E6A | 0.157
chain 5 F5I | 1.25
chain 5 F5H | 1.37
chain 5 I2H | 1.36
chain 5 I2G | 0.952
chain 5 I2W | 1.07
chain 5 I2C | 1.38
chain 5 I2E | 1.39
chain 5 I2N | 1.49
chain 5 I2V | 1.42

Further lines, results first:

ratio to parent | Variant
0.48 | chain 5 K7V
0.975 | chain 5 K7W
1.04 | chain 5 N4H
1.13 | chain 5 N4W
0.42 | chain 5 N4S
1.22 | chain 5 N4R
0.0424 | chain 5 N4D
0.269 | chain 5 N4M
0.856 | chain 5 L8V
1.23 | chain 5 L8K
1.11 | chain 5 L8G
0.934 | chain 5 L8W
1.24 | chain 5 L8P
0.886 | chain 5 S1Y
0.558 | chain 5 S1K
0.207 | chain 5 S1F
0.896 | chain 5 S1G
0.735 | chain 5 S1D
0.218 | chain 5 S1I
1.46 | chain 5 S1P
0.27 | chain 5 S1N

Variants of: B2
Assay: % of reporter cells activated (NFAT-GFP), raw

Variant | ratio to parent
chain 5 E6A | 0.437
chain 5 E6I | 0.449
chain 5 E6V | 0.409
chain 5 E6P | 0.155
chain 5 E6T | 0.702
chain 5 E6R | 0.329
chain 5 E6L | 0.0232
chain 5 E6Y | 0.0945
chain 5 E6G | 0.597
chain 5 E6K | 0.795
chain 5 E6F | 0.0676
chain 5 I2T | 1.22
chain 5 I2G | 1.06
chain 5 I2A | 1.21
chain 5 I2S | 1.18
chain 5 I2W | 0.799
chain 5 I2K | 1
chain 5 I2C | 1.22
chain 5 I2F | 1.13

Variant | ratio to parent
chain 5 I2Q | 0.82
chain 5 F5R | 1.31
chain 5 F5I | 1.14
chain 5 F5C | 1.26
chain 5 F5N | 1.15
chain 5 F5E | 1.03
chain 5 F5Y | 1.22
chain 5 F5G | 1.05
chain 5 F5T | 1.38
chain 5 F5W | 1.22
chain 5 F5A | 1.33
chain 5 F5D | 0.945
chain 5 F5K | 1.09
chain 5 F5P | 0.552
chain 5 F5S | 1.31
chain 5 K7D | 0.294
chain 5 K7N | 0.332
chain 5 K7E | 0.226
chain 5 K7H | 0.723

Variant | ratio to parent
chain 5 K7G | 0.473
chain 5 K7Q | 0.798
chain 5 K7L | 0.719
chain 5 K7F | 0.296
chain 5 K7M | 0.546
chain 5 K7C | 0.432
chain 5 I3R | 0.385
chain 5 I3K | 0.907
chain 5 I3G | 0.446
chain 5 I3Q | 0.728
chain 5 I3T | 0.43
chain 5 I3N | 0.336
chain 5 I3D | 0.484
chain 5 I3P | 0.819
chain 5 I3A | 0.184
chain 5 I3W | 0.753
chain 5 I3Y | 0.0606
chain 5 I3M | 0.914

Second part, the variant after the results:

ratio to parent | Variant
0.543 | chain 5 S1H
0.802 | chain 5 S1Y
0.0383 | chain 5 S1N
0.0106 | chain 5 S1I
0.0181 | chain 5 S1M
0.0373 | chain 5 S1P
0.126 | chain 5 S1W
0.0209 | chain 5 S1E
0.125 | chain 5 S1D
0.0112 | chain 5 S1V
0.424 | chain 5 S1K
0.381 | chain 5 S1T
0.0362 | chain 5 S1Q
0.0443 | chain 5 N4C
0.0236 | chain 5 N4Q
0.00953 | chain 5 N4E
0.0154 | chain 5 N4S
0.0561 | chain 5 N4W
0.0077 | chain 5 N4G
0.0766 | chain 5 N4P
0.00718 | chain 5 N4M
0.41 | chain 5 N4I
0.294 | chain 5 N4H
0.364 | chain 5 N4K
0.0572 | chain 5 N4Y
0.572 | chain 5 N4R

ratio to parent | Variant
0.0077 | chain 5 N4A
0.608 | chain 5 N4L
0.012 | chain 5 N4F
0.0308 | chain 5 N4V
1.09 | chain 5 L8T
1 | chain 5 L8G
0.892 | chain 5 L8E
1 | chain 5 L8W
0.803 | chain 5 L8D
1.14 | chain 5 L8F
1.17 | chain 5 L8I
1.23 | chain 5 L8Y
1.09 | chain 5 L8K
0.899 | chain 5 L8S
1.08 | chain 5 L8A
1.13 | chain 5 L8R
1.14 | chain 5 L8M
1.18 | chain 5 L8Q
0.958 | chain 5 L8V
0.883 | chain 5 L8N
0.957 | chain 5 K7T
0.781 | chain 5 K7W
0.982 | chain 5 K7R
0.668 | chain 5 K7Y
0.969 | chain 5 K7S
